Data on 13 substances can be found in paper PMC10246534.

By Kd is commonly meant the concentration at which binding is half-saturated. A high value points to lower affinity.

Among the targets are sotrovimab; casirivimab (human); imdevimab (human).
Common to all, as to test: SPR; Biacore T200; […]; HBS-EP, 25 °C; 1:1 binding model

imdevimab (human), sequence (heavy, as listed by the source, chain 1 of 2): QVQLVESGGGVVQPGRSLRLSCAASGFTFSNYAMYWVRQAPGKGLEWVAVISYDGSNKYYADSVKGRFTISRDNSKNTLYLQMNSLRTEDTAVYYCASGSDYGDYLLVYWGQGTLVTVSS
imdevimab (human), sequence (light, as listed by the source, chain 2 of 2): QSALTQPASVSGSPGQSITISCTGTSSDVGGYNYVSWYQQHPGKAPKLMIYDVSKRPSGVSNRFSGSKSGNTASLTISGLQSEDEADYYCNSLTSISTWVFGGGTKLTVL
casirivimab (human), sequence (heavy, as listed by the source, chain 1 of 2): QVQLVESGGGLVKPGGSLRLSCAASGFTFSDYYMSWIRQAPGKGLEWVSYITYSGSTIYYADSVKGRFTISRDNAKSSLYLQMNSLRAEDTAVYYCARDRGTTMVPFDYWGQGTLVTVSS
casirivimab (human), sequence (light, as listed by the source, chain 2 of 2): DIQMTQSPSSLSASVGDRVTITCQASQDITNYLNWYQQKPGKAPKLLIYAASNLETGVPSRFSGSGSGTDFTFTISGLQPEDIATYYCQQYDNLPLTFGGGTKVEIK

For the substance “BA.1 RBD + E340A (from UniProt P0DTC2) (domain or fragment)”, the Kd with sotrovimab was determined as 3420 nM.
With “BA.1 RBD + E340D (from UniProt P0DTC2) (domain or fragment)”, the Kd with sotrovimab turned out to be 764 nM.
As for “BA.1 RBD + E340K (from UniProt P0DTC2) (domain or fragment)”, in the assay with sotrovimab, the Kd stood at 3440 nM.
“BA.1 RBD + E340V (from UniProt P0DTC2) (domain or fragment)” showed a Kd in the assay with sotrovimab of 345 nM.
For the substance “BA.1 RBD + P337R (from UniProt P0DTC2) (domain or fragment)”, the Kd with sotrovimab turned out to be 753 nM.
“BA.1 RBD + P337S (from UniProt P0DTC2) (domain or fragment)” gave a Kd in the assay with sotrovimab of 332 nM. Against the preceding substance, the Kd is about 2.3-fold lower.
“Delta RBD + E406D (from UniProt P0DTC2) (domain or fragment)”: the Kd with casirivimab (human) came to 7.1 nM.
In the assay with imdevimab (human), “Delta RBD + E406Q (from UniProt P0DTC2) (domain or fragment)” had a Kd of 8.9 nM.
For “Delta RBD + G446S (from UniProt P0DTC2) (domain or fragment)”, the Kd with casirivimab (human) worked out at 0.56 nM; with imdevimab (human) it was 734 nM.
For “Delta RBD + G446V (from UniProt P0DTC2) (domain or fragment)”, the Kd in the assay with casirivimab (human) is 0.64 nM.
Consider “Delta RBD + G446V + L455F (from UniProt P0DTC2) (domain or fragment)”, for which the Kd with casirivimab (human) turned out to be 69 nM.
“Delta RBD + L455S (from UniProt P0DTC2) (domain or fragment)”: the Kd with imdevimab (human) was determined as 9.1 nM.
Turning to “Delta RBD + Y453F (from UniProt P0DTC2) (domain or fragment)”, the Kd was found to be 67 nM in the assay with casirivimab (human) and 9.8 nM with imdevimab (human).
